# Measured values reported in the supplement of paper PMC10065799, “High-throughput profiling of sequence recognition by tyrosine kinases and SH2 domains using bacterial peptide display” (eLife, 2023).
# Assays:
# [1] = test system: AncSZ; assay: phosphorylation enrichment, bacterial display (enrichment ratio); higher = better substrate or ligand; peptides without Tyr show the background
# [2] = target: EPHB1 (UniProt P54762); assay: as above
# [3] = target: EPHB2 (UniProt P29323); assay: as above
# [4] = target: FGFR1 (UniProt P11362); assay: as above
# Chain of FGFR1 (P11362 whole entry, looked up): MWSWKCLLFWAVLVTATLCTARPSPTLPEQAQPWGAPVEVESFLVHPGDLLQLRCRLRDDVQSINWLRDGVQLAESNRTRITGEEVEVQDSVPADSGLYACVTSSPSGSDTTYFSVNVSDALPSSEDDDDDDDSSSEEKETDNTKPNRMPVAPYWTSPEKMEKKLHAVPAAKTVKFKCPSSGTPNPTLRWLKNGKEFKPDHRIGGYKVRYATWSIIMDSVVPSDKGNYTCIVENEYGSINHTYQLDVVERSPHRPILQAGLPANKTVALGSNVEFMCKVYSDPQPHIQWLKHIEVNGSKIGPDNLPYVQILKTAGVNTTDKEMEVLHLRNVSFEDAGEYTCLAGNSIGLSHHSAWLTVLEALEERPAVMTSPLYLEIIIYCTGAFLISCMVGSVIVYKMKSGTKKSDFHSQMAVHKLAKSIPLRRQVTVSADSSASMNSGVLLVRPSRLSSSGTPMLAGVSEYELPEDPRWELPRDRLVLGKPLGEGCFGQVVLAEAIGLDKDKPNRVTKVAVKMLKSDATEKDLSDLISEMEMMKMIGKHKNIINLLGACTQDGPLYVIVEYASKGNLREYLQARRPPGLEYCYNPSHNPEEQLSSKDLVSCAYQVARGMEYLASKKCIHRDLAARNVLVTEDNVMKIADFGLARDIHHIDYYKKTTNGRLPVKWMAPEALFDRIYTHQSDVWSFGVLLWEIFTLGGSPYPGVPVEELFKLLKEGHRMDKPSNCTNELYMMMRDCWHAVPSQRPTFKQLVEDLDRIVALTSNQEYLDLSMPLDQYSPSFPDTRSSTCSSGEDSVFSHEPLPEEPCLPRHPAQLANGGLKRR
# [5] = target: FGFR3 (UniProt P22607); assay: as above
# [6] = test system: Fer (mouse); assay: as above
# [7] = target: Fes (UniProt P07332); assay: as above
# Chain of Fes (P07332 whole entry, looked up): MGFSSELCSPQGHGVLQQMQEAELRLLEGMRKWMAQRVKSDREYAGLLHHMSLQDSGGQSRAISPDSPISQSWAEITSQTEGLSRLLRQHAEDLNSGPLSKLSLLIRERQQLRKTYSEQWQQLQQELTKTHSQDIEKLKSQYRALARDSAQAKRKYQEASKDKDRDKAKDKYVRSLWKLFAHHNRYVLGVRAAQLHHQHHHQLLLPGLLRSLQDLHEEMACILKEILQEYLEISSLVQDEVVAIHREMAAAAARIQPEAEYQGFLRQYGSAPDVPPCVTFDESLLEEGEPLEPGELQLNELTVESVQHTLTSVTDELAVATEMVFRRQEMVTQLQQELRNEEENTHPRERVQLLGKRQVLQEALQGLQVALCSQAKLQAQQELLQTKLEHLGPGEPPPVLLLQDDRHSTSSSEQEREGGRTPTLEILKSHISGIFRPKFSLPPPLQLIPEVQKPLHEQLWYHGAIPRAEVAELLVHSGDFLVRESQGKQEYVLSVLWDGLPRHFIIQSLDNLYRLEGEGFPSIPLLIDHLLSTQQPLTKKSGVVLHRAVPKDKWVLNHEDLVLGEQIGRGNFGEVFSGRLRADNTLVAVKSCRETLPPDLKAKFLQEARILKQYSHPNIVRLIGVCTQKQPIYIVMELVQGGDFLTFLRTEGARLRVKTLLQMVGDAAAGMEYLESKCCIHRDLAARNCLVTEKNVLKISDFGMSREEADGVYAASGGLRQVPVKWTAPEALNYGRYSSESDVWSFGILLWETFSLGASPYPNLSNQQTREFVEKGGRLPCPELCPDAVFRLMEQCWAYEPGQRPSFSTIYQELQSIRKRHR
# [8] = target: Fyn (UniProt P06241); assay: as above
# Chain of Fyn (P06241 whole entry, looked up): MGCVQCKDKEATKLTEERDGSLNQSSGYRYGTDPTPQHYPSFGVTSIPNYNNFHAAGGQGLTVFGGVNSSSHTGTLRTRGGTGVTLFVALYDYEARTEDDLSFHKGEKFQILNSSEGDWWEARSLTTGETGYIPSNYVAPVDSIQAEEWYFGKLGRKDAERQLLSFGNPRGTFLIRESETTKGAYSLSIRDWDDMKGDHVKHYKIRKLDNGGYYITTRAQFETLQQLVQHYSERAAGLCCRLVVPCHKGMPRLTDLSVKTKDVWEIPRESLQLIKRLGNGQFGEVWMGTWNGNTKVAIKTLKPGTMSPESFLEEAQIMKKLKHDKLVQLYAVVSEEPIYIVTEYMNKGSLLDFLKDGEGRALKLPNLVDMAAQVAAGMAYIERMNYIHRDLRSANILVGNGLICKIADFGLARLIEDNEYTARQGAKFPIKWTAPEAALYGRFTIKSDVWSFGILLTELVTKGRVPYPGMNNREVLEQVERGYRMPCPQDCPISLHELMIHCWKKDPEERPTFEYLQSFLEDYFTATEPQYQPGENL
# [9] = target: Hck (UniProt P08631); assay: as above
# Chain of Hck (P08631 whole entry, looked up): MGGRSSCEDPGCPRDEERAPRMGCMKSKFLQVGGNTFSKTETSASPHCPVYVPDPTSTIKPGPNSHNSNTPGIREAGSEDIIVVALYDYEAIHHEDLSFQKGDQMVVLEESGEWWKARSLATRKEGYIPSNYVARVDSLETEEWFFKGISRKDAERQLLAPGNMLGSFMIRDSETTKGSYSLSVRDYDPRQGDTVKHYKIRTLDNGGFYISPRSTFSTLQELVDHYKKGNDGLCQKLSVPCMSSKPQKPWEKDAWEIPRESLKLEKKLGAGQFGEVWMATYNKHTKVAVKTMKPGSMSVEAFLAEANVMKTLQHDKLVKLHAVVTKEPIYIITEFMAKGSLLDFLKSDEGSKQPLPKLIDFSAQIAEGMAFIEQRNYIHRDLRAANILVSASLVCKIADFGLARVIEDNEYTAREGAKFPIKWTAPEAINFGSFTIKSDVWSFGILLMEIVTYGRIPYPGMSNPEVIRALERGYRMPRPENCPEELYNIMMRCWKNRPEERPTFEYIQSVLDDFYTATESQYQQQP
# [10] = target: Jak2 (UniProt O60674); assay: as above
# Chain of Jak2 (O60674 whole entry, looked up): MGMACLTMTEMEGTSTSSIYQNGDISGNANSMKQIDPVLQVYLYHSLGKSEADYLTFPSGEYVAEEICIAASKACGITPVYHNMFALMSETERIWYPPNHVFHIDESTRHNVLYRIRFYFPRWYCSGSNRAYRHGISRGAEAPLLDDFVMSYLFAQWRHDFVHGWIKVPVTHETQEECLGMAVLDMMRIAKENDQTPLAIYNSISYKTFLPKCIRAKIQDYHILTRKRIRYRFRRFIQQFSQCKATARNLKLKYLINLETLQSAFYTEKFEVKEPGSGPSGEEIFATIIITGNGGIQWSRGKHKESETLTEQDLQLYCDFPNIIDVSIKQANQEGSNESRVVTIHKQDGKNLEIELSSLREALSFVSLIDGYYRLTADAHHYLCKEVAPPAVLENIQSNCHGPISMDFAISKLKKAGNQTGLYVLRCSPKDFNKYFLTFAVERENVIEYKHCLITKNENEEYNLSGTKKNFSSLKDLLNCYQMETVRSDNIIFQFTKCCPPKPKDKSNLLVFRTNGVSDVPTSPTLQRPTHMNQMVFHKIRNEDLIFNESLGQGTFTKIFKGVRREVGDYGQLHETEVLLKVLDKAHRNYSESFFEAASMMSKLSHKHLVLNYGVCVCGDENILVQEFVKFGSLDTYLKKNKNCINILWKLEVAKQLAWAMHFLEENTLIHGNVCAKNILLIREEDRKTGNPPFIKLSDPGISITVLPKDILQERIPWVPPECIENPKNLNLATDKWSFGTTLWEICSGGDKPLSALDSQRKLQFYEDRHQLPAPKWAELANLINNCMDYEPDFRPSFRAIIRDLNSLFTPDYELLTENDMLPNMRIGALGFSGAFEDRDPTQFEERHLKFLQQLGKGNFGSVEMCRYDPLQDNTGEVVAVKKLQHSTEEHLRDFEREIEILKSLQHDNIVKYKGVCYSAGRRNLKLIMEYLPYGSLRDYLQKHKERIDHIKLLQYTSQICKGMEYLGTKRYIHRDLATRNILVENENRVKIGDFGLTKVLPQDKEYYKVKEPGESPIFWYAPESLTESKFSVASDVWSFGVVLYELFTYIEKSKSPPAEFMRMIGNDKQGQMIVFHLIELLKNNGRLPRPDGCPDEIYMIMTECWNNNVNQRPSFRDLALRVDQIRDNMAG
# [11] = target: MERTK (UniProt Q12866); assay: as above
# [12] = test system: c-Abl (mouse); assay: as above
# [13] = test system: c-Src; assay: as above
# [14] = target: Grb2 SH2 (UniProt P62993); assay: SH2 binding enrichment of the phosphorylated peptide, bacterial display (enrichment ratio); higher = better substrate or ligand; peptides without Tyr show the background
# [15] = target: SHP2-C SH2; assay: as above
# [16] = target: c-Src SH2; assay: as above
# 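Wherever SH2 binding enrichment of the phosphorylated peptide, bacterial display is given: peptide library displayed on the E. coli surface as eCPX fusions, selected cells deep-sequenced, score is each peptide's frequency after selection divided by its frequency in the input.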
# 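Wherever phosphorylation enrichment, bacterial display is given: 11-residue human phosphosite peptides and single-mutation variants displayed on the E. coli surface, counted by deep sequencing, each peptide's frequency after selection divided by its frequency in the unselected input library; frequency after pTyr selection over input frequency; kinase dosed for 20-30% of maximal phosphorylation in three min.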
# Chain of EPHB1 (P54762 whole entry, looked up): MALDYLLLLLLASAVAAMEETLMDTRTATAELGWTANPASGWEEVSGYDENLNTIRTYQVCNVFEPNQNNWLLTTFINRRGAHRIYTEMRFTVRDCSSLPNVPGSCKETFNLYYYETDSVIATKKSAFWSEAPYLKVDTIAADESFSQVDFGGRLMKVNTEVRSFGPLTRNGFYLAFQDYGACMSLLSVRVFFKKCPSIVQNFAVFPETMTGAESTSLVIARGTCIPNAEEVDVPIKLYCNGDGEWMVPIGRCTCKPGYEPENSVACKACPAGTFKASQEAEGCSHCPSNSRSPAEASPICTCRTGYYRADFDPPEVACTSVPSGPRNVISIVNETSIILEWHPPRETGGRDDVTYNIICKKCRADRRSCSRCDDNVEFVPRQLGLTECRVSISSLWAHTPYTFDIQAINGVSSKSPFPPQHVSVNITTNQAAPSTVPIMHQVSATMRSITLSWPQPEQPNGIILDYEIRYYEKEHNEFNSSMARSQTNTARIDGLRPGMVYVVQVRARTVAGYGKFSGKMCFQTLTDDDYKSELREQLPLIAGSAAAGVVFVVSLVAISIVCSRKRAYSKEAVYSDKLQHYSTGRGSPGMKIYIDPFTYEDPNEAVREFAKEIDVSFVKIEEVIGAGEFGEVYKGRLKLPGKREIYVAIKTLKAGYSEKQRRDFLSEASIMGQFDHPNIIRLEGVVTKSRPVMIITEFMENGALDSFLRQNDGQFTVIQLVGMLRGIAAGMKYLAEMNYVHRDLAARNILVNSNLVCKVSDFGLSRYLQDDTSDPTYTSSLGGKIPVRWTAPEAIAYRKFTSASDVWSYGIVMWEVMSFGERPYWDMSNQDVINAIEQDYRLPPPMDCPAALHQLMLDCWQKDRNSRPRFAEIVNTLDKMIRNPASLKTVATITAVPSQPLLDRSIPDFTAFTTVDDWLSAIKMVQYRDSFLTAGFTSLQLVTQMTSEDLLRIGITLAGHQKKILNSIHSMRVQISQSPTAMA
SH2 binding enrichment [14],SH2 binding enrichment [15],SH2 binding enrichment [16],Sequence,phosphorylation enrichment [1],phosphorylation enrichment [2],phosphorylation enrichment [3],phosphorylation enrichment [4],phosphorylation enrichment [5],phosphorylation enrichment [6],phosphorylation enrichment [7],phosphorylation enrichment [8],phosphorylation enrichment [9],phosphorylation enrichment [10],phosphorylation enrichment [11],phosphorylation enrichment [12],phosphorylation enrichment [13]
0.88,0.594,0.896,RGDCTYAPLLG [AR_Y269_M268T],1.21,8.38,9.28,1.42,1.26,1.33,1.46,8.94,9.33,1.18,7.45,2.55,6.35
1.11,0.65,0.819,RGDSAYHSQRH [ERBB3_Y1132],0.51,0.534,0.469,0.401,0.427,0.569,0.731,0.455,0.305,0.288,0.357,0.453,0.462
0.794,0.725,0.461,RGESFYQDRMN [RARS_Y338],0.746,0.463,0.392,0.534,0.512,0.603,0.996,0.411,0.631,0.899,0.469,0.726,0.541
1.3,0.458,0.517,RGYRQDAYDGK [HLA-A_Y140],0.773,0.519,0.546,0.641,0.509,0.764,0.677,0.671,0.591,0.859,0.436,0.859,0.526
1.02,0.857,0.525,RISGVYKLPPD [ANGPTL7_Y145],0.9,0.511,0.586,0.623,0.801,0.5,0.852,1,0.572,0.785,0.719,0.838,0.827
0.461,0.636,0.391,RISRKYKKVRF [F8_Y442_G439S],0.879,0.891,1.07,0.986,0.749,0.759,0.883,0.721,0.571,0.64,0.805,0.711,0.749
0.652,0.503,0.477,RIVRKYKKVRF [F8_Y442_G439V],0.964,0.699,0.84,0.647,0.765,0.93,0.78,0.823,0.547,0.65,0.824,0.687,0.87
1.05,0.709,0.399,RKGIRYLTSGL [PIGA_Y82],0.698,0.533,0.437,0.47,0.688,0.368,0.668,0.434,0.645,0.657,0.57,0.438,0.648
0.703,0.781,1.29,RLCQDYDIIGP [ANK1_Y1073_T1075I],2.56,10,12.7,2.35,1.84,1.81,1.26,1.6,2.46,1.17,1.26,0.663,1.47
0.75,0.677,0.544,RLDRSYSFSFS [PEAR1_Y890_YF],1.06,0.783,0.48,0.738,0.607,0.809,0.984,0.702,0.791,0.816,0.62,0.593,0.575
1.94,1.95,1.23,RLLVVFPWTQR [HBB_Y36_Y36F],2.13,0.574,0.766,0.67,1.08,0.608,1.73,0.545,0.829,1.59,0.784,1.11,0.584
1.99,2.05,1.41,RLLVVYPWTQR [HBB_Y36],1.09,0.553,0.632,0.591,0.722,0.5,1.06,0.574,0.497,0.967,0.523,0.77,0.53
1.01,1.01,0.842,RLNWIYFKDQT [RS1_Y165_YF],2.98,1.08,0.918,1.17,1.35,0.774,2.3,0.757,1.02,2.15,0.49,1.35,0.855
0.883,0.791,0.53,RPASQYPHQVP [ADAM12_Y895_P893S],0.533,0.205,0.689,0.476,0.403,0.464,0.548,0.61,0.553,0.56,0.419,0.374,0.459
0.771,0.568,0.541,RPSRWYQFRVA [ANOS1_Y259],1.22,0.834,0.717,0.748,0.887,1.03,1.55,1.01,0.642,0.894,0.699,0.955,0.756
0.759,0.557,0.574,RPYRPYIIRGM [LRP5_Y1531],0.949,0.531,0.842,0.748,0.845,0.536,1.4,0.987,1.04,0.826,0.852,0.587,0.917

SH2 binding enrichment [14],SH2 binding enrichment [15],SH2 binding enrichment [16],Sequence,phosphorylation enrichment [1],phosphorylation enrichment [2],phosphorylation enrichment [3],phosphorylation enrichment [4],phosphorylation enrichment [5],phosphorylation enrichment [6],phosphorylation enrichment [7],phosphorylation enrichment [8],phosphorylation enrichment [9],phosphorylation enrichment [10],phosphorylation enrichment [11],phosphorylation enrichment [12],phosphorylation enrichment [13]
0.621,0.451,0.436,RREGVYRNNID [PTEN_Y46_L42R],0.55,0.324,0.517,0.392,0.516,0.469,0.925,0.664,0.461,0.778,0.752,0.783,0.8
0.982,0.624,0.49,RRESQYQENRG [LRCH3_Y354],0.835,0.431,0.494,0.479,0.663,0.563,0.571,0.637,0.503,0.582,0.472,0.73,0.475
0.752,0.688,0.426,RRFVFYFSFLL [PTEN_Y177_YF],1.06,0.654,0.655,0.938,0.608,0.829,0.744,0.741,0.899,0.622,0.593,0.502,0.611
0.574,0.822,0.57,RRIHSYRSHLW [VHL_Y112_G114S],0.576,0.81,2.19,1.25,0.778,0.507,1.17,0.833,0.601,0.487,0.718,0.395,0.439
0.565,0.641,0.599,RRNVYYYSYLL [PTEN_Y177_Y174N],1.16,1.74,0.707,6.81,4.21,0.556,0.796,1.14,1.13,2.42,8.2,0.616,1.79
0.888,1.08,0.73,RSFPSYFTSHV [NEFL_Y442_YF],0.869,0.672,0.761,0.899,0.634,0.525,0.887,0.65,0.477,1.8,0.629,0.772,0.481
1.17,1.11,1.28,RSFPSYYTSHV [NEFL_Y442],1.05,2.37,1.34,2.19,1.28,0.65,1.05,0.775,1.1,3.72,7.71,1.02,1.12
0.935,0.745,0.854,RSGIYYKPESL [L2HGDH_Y103_H98R],1.17,2.37,3.34,5.07,3.3,0.699,0.915,2.43,4.86,2.29,17,45.6,2.6
0.777,0.68,0.457,RSSGSYGGGGQ [HNRNPA1_Y341_P340S],0.492,1.5,0.606,0.536,0.485,0.438,0.532,0.539,0.423,0.354,0.415,0.527,0.366
1.13,1.39,0.758,RSSPVYVGRVV [TGM2_Y219],1.18,0.59,0.796,0.77,0.82,0.945,1.03,1.42,2.22,1.03,0.818,1.71,1.42
0.813,0.739,0.59,RTCSSYTIEKI [PARP15_Y520_A521T],0.937,0.608,0.474,0.475,1.18,0.502,1.51,0.638,0.726,1.13,0.533,0.84,0.544
0.697,0.432,0.545,RVAFQYGVTDL [MYBPC3_Y340_I336V],1.16,0.461,0.827,0.456,0.842,0.576,1.27,0.49,0.599,1.08,0.471,0.764,0.493
0.663,0.54,0.671,RVEDAYILTCN [CCT6A_Y229],1.07,0.515,0.487,0.721,0.689,4.93,0.928,0.839,0.692,0.772,0.498,0.565,1
2.11,1.67,1.53,RVKPIYFHTQG [AR_Y916_K911R],1.16,0.644,0.804,0.706,0.765,0.764,1.69,0.642,0.622,1.6,0.763,1.04,0.952
1.95,3.37,2.06,RVKTPYSLKRW [BMPR2_Y979],1.19,0.608,0.516,0.666,0.931,0.756,1.17,0.582,0.745,1.24,0.572,0.944,0.616
0.468,0.503,0.273,RVQKRYIFDNV [RCN1_Y115],0.531,0.291,0.472,0.484,0.619,0.381,0.442,0.319,0.328,0.455,0.422,0.252,0.394

Sequence,SH2 binding enrichment [14],SH2 binding enrichment [15],SH2 binding enrichment [16],phosphorylation enrichment [1],phosphorylation enrichment [2],phosphorylation enrichment [3],phosphorylation enrichment [4],phosphorylation enrichment [5],phosphorylation enrichment [6],phosphorylation enrichment [7],phosphorylation enrichment [8],phosphorylation enrichment [9],phosphorylation enrichment [10],phosphorylation enrichment [11],phosphorylation enrichment [12],phosphorylation enrichment [13]
RLEGVYRNNID [PTEN_Y46],0.948,0.588,0.398,0.553,0.478,0.578,0.293,0.703,0.849,0.889,0.675,0.389,0.751,0.291,1.35,0.561
